# Measurements from patent US20240294624A1, “ANTI-ERYTHROPOIETIN ANTIBODY” (ANDREMACON S.R.L., priority 2021, published 2024).
# What was measured:
# Type in all cases: cell-based, human
# PC-3 = experiment: MTT cell viability assay; settings: 96 hours, 6 μg/ml
# Text: (§1) F. Prostate cancer cell lines (PC-3 and LNCAP); human prostate cancer cells used in cancer research and drug development. […] have been reported to be overexpressed and associated with poor prognosis and reduced survival in prostate cancer patients, and are considered predictive markers of aggressive prostate cancer behavior.
# LNCAP = experiment: MTT cell viability assay; settings: 96 hours, 6 μg/ml
# Text: as §1
# HOC84 stem cells = experiment: Gene expression by RealTime PCR; settings: 72 h
# Protocol: The analysis was performed by the assessment of gene expression by RealTime PCR on genes related to apoptosis (FIG. 23A), proliferation (FIG. 23B), angiogenesis (FIG. 23C), and inflammation (FIG. 23D). HOC84 stem cells (2×10^5) were seeded into 25 cm2 collagen-coated culture flasks. […] At the end, total RNA was extracted following TRI-Reagent protocol and quantified with NanoDrop 1000 Spectro-photometer (Thermo Fisher Scientific). Reverse transcriptase reaction was executed using TranScriba Kit (A&A Biotechnology), loading 1 μg of RNA (A260/A280>1.8), according to manufacturer's instructions. qRT-PCR was performed using StepOnePlus™ (Thermo Fisher Scientific), 1 μg of cDNA, forward and reverse primers (250 nM each) Titan HotTaq EvaGreen® qPCR Mix (Bioatlas). Data were normalized to 18S expression, used as endogenous control. Relative gene expression was determined using the 2−ΔΔCt method (FIG. 23).
# primary GECs = experiment: MTT cell viability assay; settings: 96 hours, anti-EPO (C4) 6 μg/ml, TMZ 100 μM, FTY720 100 nM
# Text: B. Primary glioblastoma endothelial cells (GECs).
# S1PR1 = S1PR1 expression by immunofluorescence; settings: S-ECs of pathological synovium
# Protocol: ECs (1×10^4/well) were seeded into μ-Slide 8 Well, ibiTreat (Ibidi, Martinsried, Germany) collagen-coated. When cells reached the desired confluence, were fixed in paraformaldehyde 4% for 20 min at RT, washed twice with D-PBS and incubated with 0.1 M glycine to quench auto-fluorescence. Then, the coverslip was incubated with PBS+0.25% Triton ×100 to permeabilize cell membranes and then blocked in PBS+5% BSA for 30 min at RT. Incubation with anti-S1 PR1 primary antibody diluted in blocking buffer was performed overnight at 4° C. The following day, primary antibody was removed and fluorescent secondary antibody labelling was then added for 45 min at RT, protected from light, washed and finally, the coverlips were mounted with ProLong Gold Antifade Mountant (ThermoFisher). Immunolabeling was acquired using an inverted DM14 microscope equipped with DFC350×CCDcamera and LAS-X software (all from Leica Microsystems, Wetzlar, Germany). […] S1 PR1 levels are increased in pro-tumoral and pro-angiogenic conditions, when intracellular and extracellular levels of S1 P are presented. It is possible therefore to hypothesize the use of the anti-EPO (C4) antibody, such as in direct intra-articular treatment in the form of gel or suspension, in association or not with “coagulation factors and their derivatives” and also comprising FTY720 and negative modulators of the sphingosine-1-phosphate pathway.
# S-ECs = experiment: Tube formation assay on Matrigel; settings: 48 h
# Protocol: S-ECs (1×10^4) were plated on 10 μL of Matrigel in BM, as a Control Condition (CTR, FIG. 19A) or in media containing the anti-EPO (C4) (FIG. 19B), FTY720 (FIG. 19C), and anti-EPO (C4)+FTY720 (FIG. 19D) treatments, as reported above. S-ECs were incubated at 37° C., 5% C02, 5% 02. After 48 h, tube-like structure formation was evaluated by phase-contrast microscopy. […] Data are expressed as the mean±standard deviation of at least 3 experiments in triplicate. * P<0.05 versus CTR for treatments tested.
# GBM-CSC cell line = experiment: MTT cell viability assay; settings: 96 hours, anti-EPO (C4) 6 μg/ml, TMZ 100 μM, FTY720 100 nM
# Protocol: C. Glioblastoma cancer stem cell commercial line (Glioblastoma stem cell line, GBM-CSCs). Anti-EPO treatments were performed on GBM-CSCs, a commercial glioblastoma cancer cell line by CelProgen. As reported in the datasheet, GBM-CSCs have been isolated from human brain cancer tissue. GBM-CSCs were maintained in Celprogen's human glioblastoma cancer stem cell (GBM) complete growth medium and subcultured every 24 to 48 hours on a specific extra-cellular matrix.
molecule,measurement,setting,value
"anti-EPO (C4): isolated anti-Erythropoietin monoclonal antibody, VL SEQ ID NO:6, VH SEQ ID NO:14, hybridoma DSM ACC 3370 (antibody, listed as Homo sapiens, V domains shown, VH amino acid sequence; VL amino acid sequence) VH: EVKLQESGGGLVQPGGSLKLSCAASGFTFSTYTMSWVRQTPEKRLEWVAYISNGGDRTYYPDTVKGRFTISRDDAKNTLFLQMSSLKSEDTAMYYCARHNITTVPFTMDYWGQGTSVTVSS VL: DIVLTQSPASLAVSLGQRATISCRASESVDYYGTGLMQWYQQRPGQPPKLLIYGASNVGSGVPARFSGSGSGTDFSLNIHPVEGDDIAMYFCQQTRKVPSTFGGGTKLEIK",cells initially plated dead,PC-3,71%
same,cells initially plated dead,LNCAP,74%
same,expression of genes related to angiogenesis,HOC84 stem cells,significantly inhibits proliferation and angiogenesis
same,expression of genes related to apoptosis,HOC84 stem cells,increases apotosis and inflammation
same,expression of genes related to inflammation,HOC84 stem cells,higher expressed
same,cells initially seeded dead,primary GECs,~70%
same,S1PR1 expression levels,S1PR1,decreased expression levels of S1 PR1
same,decrease of total length of formed tubes,S-ECs,65%
same,formation of tubular-like structures,S-ECs,able to block the formation of tubular-like structures
same,cells initially seeded dead,GBM-CSC cell line,~79%
